Test results published in patent US20250312444A1.

Tests used:
Assay in all cases: cell-based or functional assay
[1] = biological target: T1, cynomolgus monkey RXFP1 receptor (cynomolgus monkey)
T1 sequence: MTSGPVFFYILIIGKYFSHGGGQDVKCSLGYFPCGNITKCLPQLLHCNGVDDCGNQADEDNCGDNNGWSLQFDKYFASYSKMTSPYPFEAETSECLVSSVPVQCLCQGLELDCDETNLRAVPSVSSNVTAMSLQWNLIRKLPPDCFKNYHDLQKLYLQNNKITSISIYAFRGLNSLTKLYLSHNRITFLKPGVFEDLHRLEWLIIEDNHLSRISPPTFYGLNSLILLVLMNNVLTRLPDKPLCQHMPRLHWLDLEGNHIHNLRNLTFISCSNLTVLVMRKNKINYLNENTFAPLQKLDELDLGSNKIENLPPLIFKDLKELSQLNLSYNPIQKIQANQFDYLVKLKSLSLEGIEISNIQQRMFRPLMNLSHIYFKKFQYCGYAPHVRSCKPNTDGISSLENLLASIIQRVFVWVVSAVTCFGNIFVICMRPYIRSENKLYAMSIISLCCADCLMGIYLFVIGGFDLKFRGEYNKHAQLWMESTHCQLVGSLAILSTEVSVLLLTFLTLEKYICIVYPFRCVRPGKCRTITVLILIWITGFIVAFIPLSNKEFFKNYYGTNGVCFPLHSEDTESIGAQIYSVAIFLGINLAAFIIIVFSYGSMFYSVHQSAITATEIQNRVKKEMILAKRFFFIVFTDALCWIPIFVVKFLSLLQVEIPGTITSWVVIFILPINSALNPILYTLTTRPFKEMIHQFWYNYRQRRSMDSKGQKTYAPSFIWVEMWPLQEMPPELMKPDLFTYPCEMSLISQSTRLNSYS

[2] = biological target: T2, human RXFP1 receptor (human) (UniProt Q9HBX9)
T2 sequence (looked up): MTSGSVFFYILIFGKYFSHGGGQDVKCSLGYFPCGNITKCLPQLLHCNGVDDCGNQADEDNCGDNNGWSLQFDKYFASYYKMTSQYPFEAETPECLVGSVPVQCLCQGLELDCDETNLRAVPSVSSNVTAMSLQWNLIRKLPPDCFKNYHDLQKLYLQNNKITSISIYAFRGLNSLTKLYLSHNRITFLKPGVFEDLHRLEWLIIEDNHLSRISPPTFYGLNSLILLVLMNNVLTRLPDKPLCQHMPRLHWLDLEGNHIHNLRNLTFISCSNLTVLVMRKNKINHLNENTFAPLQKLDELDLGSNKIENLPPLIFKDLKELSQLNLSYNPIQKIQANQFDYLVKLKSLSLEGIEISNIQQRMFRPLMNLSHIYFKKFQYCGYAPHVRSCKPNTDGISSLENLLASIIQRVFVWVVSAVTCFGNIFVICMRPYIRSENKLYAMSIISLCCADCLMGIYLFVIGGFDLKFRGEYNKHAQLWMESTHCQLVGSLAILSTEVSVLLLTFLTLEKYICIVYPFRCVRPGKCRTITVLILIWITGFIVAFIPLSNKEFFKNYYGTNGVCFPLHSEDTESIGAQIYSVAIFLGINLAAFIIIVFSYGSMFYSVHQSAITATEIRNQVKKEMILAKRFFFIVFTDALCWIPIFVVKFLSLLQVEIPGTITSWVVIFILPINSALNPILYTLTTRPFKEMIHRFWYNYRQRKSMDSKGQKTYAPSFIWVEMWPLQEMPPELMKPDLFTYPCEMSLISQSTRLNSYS

dog RXFP1 receptor (dog) = biological target: dog RXFP1 receptor (dog)
[3] = biological target: human RXFP2 receptor (human) (UniProt Q8WXD0)
rat RXFP1 receptor (rat) = biological target: T3, rat RXFP1 receptor (rat) (UniProt Q6R6I6)
T3 sequence (looked up): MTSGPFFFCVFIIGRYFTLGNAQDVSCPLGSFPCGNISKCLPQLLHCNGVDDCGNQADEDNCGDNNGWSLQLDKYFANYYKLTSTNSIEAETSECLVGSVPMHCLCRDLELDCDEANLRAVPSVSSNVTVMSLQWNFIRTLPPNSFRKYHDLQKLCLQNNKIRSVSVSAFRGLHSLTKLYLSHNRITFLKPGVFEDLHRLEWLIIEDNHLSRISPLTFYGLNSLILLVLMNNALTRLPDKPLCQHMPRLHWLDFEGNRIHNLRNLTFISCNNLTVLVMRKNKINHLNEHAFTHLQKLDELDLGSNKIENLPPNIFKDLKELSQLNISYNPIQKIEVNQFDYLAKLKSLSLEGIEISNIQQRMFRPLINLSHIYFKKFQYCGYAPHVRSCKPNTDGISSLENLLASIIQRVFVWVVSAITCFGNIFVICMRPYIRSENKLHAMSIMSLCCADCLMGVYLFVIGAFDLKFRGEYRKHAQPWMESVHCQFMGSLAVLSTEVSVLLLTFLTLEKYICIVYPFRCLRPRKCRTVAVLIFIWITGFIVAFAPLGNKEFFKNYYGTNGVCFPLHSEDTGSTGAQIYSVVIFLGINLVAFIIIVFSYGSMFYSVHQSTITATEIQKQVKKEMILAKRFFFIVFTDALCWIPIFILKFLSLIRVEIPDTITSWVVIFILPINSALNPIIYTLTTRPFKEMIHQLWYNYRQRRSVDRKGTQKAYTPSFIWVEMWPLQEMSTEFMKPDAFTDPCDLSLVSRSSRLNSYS

[4] = biological target: T4, mouse RXFP1 receptor (mouse) (UniProt Q6R6I7)
T4 sequence (looked up): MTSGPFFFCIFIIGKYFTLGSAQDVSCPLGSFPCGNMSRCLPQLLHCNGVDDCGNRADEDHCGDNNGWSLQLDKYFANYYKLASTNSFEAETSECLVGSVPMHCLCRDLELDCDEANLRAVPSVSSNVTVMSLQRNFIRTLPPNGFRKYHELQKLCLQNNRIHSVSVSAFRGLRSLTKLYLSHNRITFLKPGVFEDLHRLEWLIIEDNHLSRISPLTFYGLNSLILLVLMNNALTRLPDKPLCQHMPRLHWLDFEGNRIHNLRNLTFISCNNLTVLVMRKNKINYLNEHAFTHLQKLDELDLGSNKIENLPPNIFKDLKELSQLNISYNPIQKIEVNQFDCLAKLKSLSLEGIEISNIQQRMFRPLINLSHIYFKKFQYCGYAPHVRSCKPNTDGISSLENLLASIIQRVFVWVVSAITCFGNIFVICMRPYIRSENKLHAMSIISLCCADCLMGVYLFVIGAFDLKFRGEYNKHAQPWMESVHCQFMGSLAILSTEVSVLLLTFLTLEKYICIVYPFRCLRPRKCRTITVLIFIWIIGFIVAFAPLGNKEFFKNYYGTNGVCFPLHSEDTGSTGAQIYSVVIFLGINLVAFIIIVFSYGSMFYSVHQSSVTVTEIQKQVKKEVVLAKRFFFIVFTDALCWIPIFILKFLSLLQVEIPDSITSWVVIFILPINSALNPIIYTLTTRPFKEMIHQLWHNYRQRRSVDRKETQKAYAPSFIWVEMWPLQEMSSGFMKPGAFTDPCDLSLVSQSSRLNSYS

EC50 (nM), cAMP production in CHO-K1 cells with receptor overexpression [1]: 21.8 nM | EC50 (nM), cAMP production in CHO-K1 cells with receptor overexpression [2]: 25.6 nM | EC50 (nM), cAMP production in THP1 cells, 1% HSA [2]: 15.8 nM | EC50 (nM), cAMP production in THP1 cells, without HSA [2]: 10.3 nM | EC50 (nM), cAMP production in CHO-K1 cells with receptor overexpression (dog RXFP1 receptor (dog)): 3040 nM | EC50 (nM), cAMP production in CHO-K1 cells with receptor overexpression [3]: 1350 nM | EC50 (nM), cAMP production in CHO-K1 cells with receptor overexpression (rat RXFP1 receptor (rat)): 10.5 nM | EC50 (nM), cAMP production in CHO-K1 cells with receptor overexpression [4]: 23.4 nM
B1: 0054 (protein)
chain: EVQLLESGGGLVQPGGSLRLSCAASGRYIDETAVAWFRQAPGKGREFVAGIGGGVDITYYADSVKGRFTISRDNSKNTLYLQMNSLRPEDTAVYYCAARPGRPLITSKVADLYPYWGQGTLVTVSSGGGGQGGGGQGGGGQGGGGQGGGGQSWMEEVIKLCGRELVRAQIAICGMSTWSGGGSGGSGGGQLYSALANKCCHVGCTKRSLARFC
